For the assay, the target named is FANCD2 (human, UniProt Q9BXW9 1-1451). The experiment in a line: cryo-EM structure.

The results in this text go back to doi:10.1101/2022.04.07.487446 (bioRxiv, 2022).

Sequence of FANCD2 (Q9BXW9 whole entry): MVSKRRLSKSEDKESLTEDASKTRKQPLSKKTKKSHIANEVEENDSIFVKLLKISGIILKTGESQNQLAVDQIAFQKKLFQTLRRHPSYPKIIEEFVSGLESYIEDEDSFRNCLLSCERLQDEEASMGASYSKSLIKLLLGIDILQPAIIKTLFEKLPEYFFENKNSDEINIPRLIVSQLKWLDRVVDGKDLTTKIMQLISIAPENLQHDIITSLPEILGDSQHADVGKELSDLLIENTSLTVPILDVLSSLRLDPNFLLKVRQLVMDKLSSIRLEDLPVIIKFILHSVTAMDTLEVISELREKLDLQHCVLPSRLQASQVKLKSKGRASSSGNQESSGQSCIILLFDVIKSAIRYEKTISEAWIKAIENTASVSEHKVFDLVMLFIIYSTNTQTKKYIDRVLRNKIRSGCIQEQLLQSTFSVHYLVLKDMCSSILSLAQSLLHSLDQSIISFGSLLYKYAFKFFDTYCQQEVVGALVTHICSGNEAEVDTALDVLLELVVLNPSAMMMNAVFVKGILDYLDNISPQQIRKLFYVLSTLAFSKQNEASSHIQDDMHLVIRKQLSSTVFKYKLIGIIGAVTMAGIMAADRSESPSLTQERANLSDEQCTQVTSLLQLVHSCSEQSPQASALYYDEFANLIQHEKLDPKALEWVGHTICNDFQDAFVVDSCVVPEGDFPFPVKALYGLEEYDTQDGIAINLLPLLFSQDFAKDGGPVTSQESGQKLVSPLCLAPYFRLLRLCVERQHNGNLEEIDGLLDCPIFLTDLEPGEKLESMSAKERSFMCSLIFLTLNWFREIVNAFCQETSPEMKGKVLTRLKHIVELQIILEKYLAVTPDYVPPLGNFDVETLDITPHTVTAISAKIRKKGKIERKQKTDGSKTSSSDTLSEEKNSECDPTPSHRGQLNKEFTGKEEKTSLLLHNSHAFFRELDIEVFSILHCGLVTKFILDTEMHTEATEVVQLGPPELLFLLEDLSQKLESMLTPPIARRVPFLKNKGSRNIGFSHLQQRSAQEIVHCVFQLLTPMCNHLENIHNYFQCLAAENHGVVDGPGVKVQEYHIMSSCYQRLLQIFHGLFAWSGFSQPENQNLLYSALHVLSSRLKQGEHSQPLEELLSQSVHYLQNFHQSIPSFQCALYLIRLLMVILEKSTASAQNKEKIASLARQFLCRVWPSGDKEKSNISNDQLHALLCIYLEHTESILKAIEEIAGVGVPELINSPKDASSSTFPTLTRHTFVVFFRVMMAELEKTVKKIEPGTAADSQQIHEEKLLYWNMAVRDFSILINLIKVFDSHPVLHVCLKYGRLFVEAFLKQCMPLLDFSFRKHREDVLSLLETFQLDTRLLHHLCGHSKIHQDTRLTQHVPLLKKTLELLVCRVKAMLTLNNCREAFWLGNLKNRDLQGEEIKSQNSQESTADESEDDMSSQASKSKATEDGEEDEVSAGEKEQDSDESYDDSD

B1: ubiquitinated His6-V5-FANCI (natural protein)
chain 1: MDQKILSLAAEKTADKLQEFLQTLREGDLTNLLQNQAVKGKVAGALLRAIFKGSPCSEEAGTLRRRKIYTCCIQLVESGDLQKEIASEIIGLLMLEAHHFPGPLLVELANEFISAVREGSLVNGKSLELLPIILTALATKKENLAYGKGVLSGEECKKQLINTLCSGRWDQQYVIQLTSMFKDVPLTAEEVEFVVEKALSMFSKMNLQEIPPLVYQLLVLSSKGSRKSVLEGIIAFFSALDKQHNEEQSGDELLDVVTVPSGELRHVEGTIILHIVFAIKLDYELGRELVKHLKVGQQGDSNNNLSPFSIALLLSVTRIQRFQDQVLDLLKTSVVKSFKDLQLLQGSKFLQNLVPHRSYVSTMILEVVKNSVHSWDHVTQGLVELGFILMDSYGPKKVLDGKTIETSPSLSRMPNQHACKLGANILLETFKIHEMIRQEILEQVLNRVVTRASSPISHFLDLLSNIVMYAPLVLQSCSSKVTEAFDYLSFLPLQTVQRLLKAVQPLLKVSMSMRDCLILVLRKAMFANQLDARKSAVAGFLLLLKNFKVLGSLSSSQCSQSLSVSQVHVDVHSHYNSVANETFCLEIMDSLRRCLSQQADVRLMLYEGFYDVLRRNSQLANSVMQTLLSQLKQFYEPKPDLLPPLKLEACILTQGDKISLQEPLDYLLCCIQHCLAWYKNTVIPLQQGEEEEEEEEAFYEDLDDILESITNRMIKSELEDFELDKSADFSQSTSIGIKNNICAFLVMGVCEVLIEYNFSISSFSKNRFEDILSLFMCYKKLSDILNEKAGKAKTKMANKTSDSLLSMKFVSSLLTALFRDSIQSHQESLSVLRSSNEFMRYAVNVALQKVQQLKETGHVSGPDGQNPEKIFQNLCDITRVLLWRYTSIPTSVEESGKKEKGKSISLLCLEGLQKIFSAVQQFYQPKIQQFLRALDVTDKEGEEREDADVSVTQRTAFQIRQFQRSLLNLLSSQEEDFNSKEALLLVTVLTSLSKLLEPSSPQFVQMLSWTSKICKENSREDALFCKSLMNLLFSLHVSYKSPVILLRDLSQDIHGHLGDIDQDVEVEKTNHFAIVNLRTAAPTVCLLVLSQAEKVLEEVDWLITKLKGQVSQETLSEEASSQATLPNQPVEKAIIMQLGTLLTFFHELVQTALPSGSCVDTLLKDLCKMYTTLTALVRYYLQVCQSSGGIPKNMEKLVKLSGSHLTPLCYSFISYVQNKSKSLNYTGEKKEKPAAVATAMARVLRETKPIPNLIFAIEQYEKFLIHLSKKSKVNLMQHMKLSTSRDFKIKGNILDMVLREDGEDENEEGTASEHGGQNKEPAKKKRKK
chain 2: […]
As to B1, the binding result is “binds”.
